Experimental data published in paper PMC4819448, “Co-operative and Hierarchical Binding of c-FLIP and Caspase-8: A Unified Model Defines How c-FLIP Isoforms Differentially Control Cell Fate” (Molecular Cell, 2016).
One block for each molecule: values may come before it.

Columns and labels:
[1] = biological target: endogenous caspase-8 (human (endogenous in BJAB and HaCaT)) (UniProt Q14790); assay: affinity purification with mass spectrometry; native CD95 DISC from c-FLIPS overexpressing HaCaT cells; label-free absolute quantification (TOP 3) by LC-MS/MS, n = 3
[2] = biological target: endogenous caspase-8 (human (endogenous in BJAB and HaCaT)) (UniProt Q14790); assay: affinity purification with mass spectrometry; native TRAIL DISC from c-FLIPS overexpressing BJAB cells; label-free absolute quantification (TOP 3) by LC-MS/MS, n = 3
[3] = biological target: T1, endogenous FADD (human (endogenous in Jurkat, BJAB and …, UniProt Q13158 1-208)); assay: affinity purification with mass spectrometry; native TRAIL DISC from control (vector) BJAB cells; label-free absolute quantification (TOP 3) by LC-MS/MS, n = 3; details: partners not purified
T1 construct: FADD, endogenous; source: endogenous, lysates of caspase-8 null Jurkat, BJAB and HaCaT cells
T1 sequence (looked up): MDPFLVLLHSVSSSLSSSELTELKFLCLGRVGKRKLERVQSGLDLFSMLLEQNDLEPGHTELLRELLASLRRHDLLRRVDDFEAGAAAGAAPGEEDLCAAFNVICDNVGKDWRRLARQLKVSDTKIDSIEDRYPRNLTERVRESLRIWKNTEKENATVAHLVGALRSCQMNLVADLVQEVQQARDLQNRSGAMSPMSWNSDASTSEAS

[4] = biological target: T1, endogenous FADD; assay: affinity purification with mass spectrometry; native TRAIL DISC from c-FLIPS overexpressing BJAB cells; label-free absolute quantification (TOP 3) by LC-MS/MS, n = 3; details: partners not purified

stoichiometry N [1]: 1 | stoichiometry N [2]: 1
Molecule: c-FLIPS stably overexpressed in BJAB or HaCaT cells (natural protein)

stoichiometry N [3]: ~6 fold | stoichiometry N [4]: ~1
B1: endogenous caspase-8 (natural protein, human (endogenous in BJAB and HaCaT), UniProt Q14790 1-479, looked up)
chain: MDFSRNLYDIGEQLDSEDLASLKFLSLDYIPQRKQEPIKDALMLFQRLQEKRMLEESNLSFLKELLFRINRLDLLITYLNTRKEEMERELQTPGRAQISAYRVMLYQISEEVSRSELRSFKFLLQEEISKCKLDDDMNLLDIFIEMEKRVILGEGKLDILKRVCAQINKSLLKIINDYEEFSKERSSSLEGSPDEFSNGEELCGVMTISDSPREQDSESQTLDKVYQMKSKPRGYCLIINNHNFAKAREKVPKLHSIRDRNGTHLDAGALTTTFEELHFEIKPHDDCTVEQIYEILKIYQLMDHSNMDCFICCILSHGDKGIIYGTDGQEAPIYELTSQFTGLKCPSLAGKPKVFFIQACQGDNYQKGIPVETDSEEQPYLEMDLSSPQTRYIPDEADFLLGMATVNNCVSYRNPAEGTWYIQSLCQSLRERCPRGDDILTILTEVNYEVSNKDDKKNMGKQMPQPTFTLRKKLVFPSD
notes: caspase-8, endogenous; procaspase-8 and p43/41 cleavage fragments detected; also called procaspase-8; p43/41 cleavage fragments; source: endogenous, BJAB and HaCaT lysates
